Like-named read-outs stand apart in the source and are kept apart here. Marks after values point to notes of the source that are not given here.
How the values were obtained:
[1] = tested on: yeast pyruvate decarboxylase (YPDC); experiment: YPDC assay coupled to alcohol dehydrogenase/NADH; assay type: biochemical, Saccharomyces cerevisiae; conditions: pyruvate as substrate; for kcat / subunit: per subunit; for kcat / subunit / S0.5: pH 6.0, 30 °C
[2] = tested on: yeast pyruvate decarboxylase (YPDC); conditions: cited from earlier work; for S0.5: pyruvate as substrate

Molecule	kcat / subunit [1]	decrease in kcat as compared to YPDC [1]	S0.5 [1]	reduction in activity compared to YPDC [2]	S0.5 [2]
E51D: variant at the indicated position of YPDC (protein, UniProt P06169 2-563, looked up, variant E51D) Pyruvate decarboxylase …: SEITLGKYLFERLKQVNVNTVFGLPGDFNLSLLDKIYEVEGMRWAGNANDLNAAYAADGYARIKGMSCIITTFGVGELSALNGIAGSYAEHVGVLHVVGVPSISAQAKQLLLHHTLGNGDFTVFHRMSANISETTAMITDIATAPAEIDRCIRTTYVTQRPVYLGLPANLVDLNVPAKLLQTPIDMSLKPNDAESEKEVIDTILALVKDAKNPVILADACCSRHDVKAETKKLIDLTQFPAFVTPMGKGSIDEQHPRYGGVYVGTLSKPEVKEAVESADLILSVGALLSDFNTGSFSYSYKTKNIVEFHSDHMKIRNATFPGVQMKFVLQKLLTTIADAAKGYKPVAVPARTPANAAVPASTPLKQEWMWNQLGNFLQEGDVVIAETGTSAFGINQTTFPNNTYGISQVLWGSIGFTTGATLGAAFAAEEIDPKKRVILFIGDGSLQLTVQEISTMIRWGLKPYLFVLNNDGYTIEKLIHGPKAQYNEIQGWDHLSLLPTFGAKDYETHRVATTGEWDKLTQDKSFNDNSKIRMIEIMLPVFDAPQNLVEQAKLTAATNAKQ	0.049 s⁻¹	1000 fold	23.1 ± 1.3 mM		
E51A: variant at the indicated position of YPDC (protein, UniProt P06169 2-563, looked up, variant E51A) Pyruvate decarboxylase …: SEITLGKYLFERLKQVNVNTVFGLPGDFNLSLLDKIYEVEGMRWAGNANALNAAYAADGYARIKGMSCIITTFGVGELSALNGIAGSYAEHVGVLHVVGVPSISAQAKQLLLHHTLGNGDFTVFHRMSANISETTAMITDIATAPAEIDRCIRTTYVTQRPVYLGLPANLVDLNVPAKLLQTPIDMSLKPNDAESEKEVIDTILALVKDAKNPVILADACCSRHDVKAETKKLIDLTQFPAFVTPMGKGSIDEQHPRYGGVYVGTLSKPEVKEAVESADLILSVGALLSDFNTGSFSYSYKTKNIVEFHSDHMKIRNATFPGVQMKFVLQKLLTTIADAAKGYKPVAVPARTPANAAVPASTPLKQEWMWNQLGNFLQEGDVVIAETGTSAFGINQTTFPNNTYGISQVLWGSIGFTTGATLGAAFAAEEIDPKKRVILFIGDGSLQLTVQEISTMIRWGLKPYLFVLNNDGYTIEKLIHGPKAQYNEIQGWDHLSLLPTFGAKDYETHRVATTGEWDKLTQDKSFNDNSKIRMIEIMLPVFDAPQNLVEQAKLTAATNAKQ	0.0043 s⁻¹	10,000 fold	0.72 ± 0.1 mM		
E51N: variant at the indicated position of YPDC (protein, UniProt P06169 2-563, looked up, variant E51N) Pyruvate decarboxylase …: SEITLGKYLFERLKQVNVNTVFGLPGDFNLSLLDKIYEVEGMRWAGNANNLNAAYAADGYARIKGMSCIITTFGVGELSALNGIAGSYAEHVGVLHVVGVPSISAQAKQLLLHHTLGNGDFTVFHRMSANISETTAMITDIATAPAEIDRCIRTTYVTQRPVYLGLPANLVDLNVPAKLLQTPIDMSLKPNDAESEKEVIDTILALVKDAKNPVILADACCSRHDVKAETKKLIDLTQFPAFVTPMGKGSIDEQHPRYGGVYVGTLSKPEVKEAVESADLILSVGALLSDFNTGSFSYSYKTKNIVEFHSDHMKIRNATFPGVQMKFVLQKLLTTIADAAKGYKPVAVPARTPANAAVPASTPLKQEWMWNQLGNFLQEGDVVIAETGTSAFGINQTTFPNNTYGISQVLWGSIGFTTGATLGAAFAAEEIDPKKRVILFIGDGSLQLTVQEISTMIRWGLKPYLFVLNNDGYTIEKLIHGPKAQYNEIQGWDHLSLLPTFGAKDYETHRVATTGEWDKLTQDKSFNDNSKIRMIEIMLPVFDAPQNLVEQAKLTAATNAKQ	0.0024 s⁻¹	10,000 fold	31.5 ± 12 mM		
C221E/C222A: double-mutant of YPDC with a substitution at the neighboring Cys222; permanently activated form (protein, UniProt P06169 2-563, looked up, variant C221E C222A) Pyruvate decarboxylase …: SEITLGKYLFERLKQVNVNTVFGLPGDFNLSLLDKIYEVEGMRWAGNANELNAAYAADGYARIKGMSCIITTFGVGELSALNGIAGSYAEHVGVLHVVGVPSISAQAKQLLLHHTLGNGDFTVFHRMSANISETTAMITDIATAPAEIDRCIRTTYVTQRPVYLGLPANLVDLNVPAKLLQTPIDMSLKPNDAESEKEVIDTILALVKDAKNPVILADAEASRHDVKAETKKLIDLTQFPAFVTPMGKGSIDEQHPRYGGVYVGTLSKPEVKEAVESADLILSVGALLSDFNTGSFSYSYKTKNIVEFHSDHMKIRNATFPGVQMKFVLQKLLTTIADAAKGYKPVAVPARTPANAAVPASTPLKQEWMWNQLGNFLQEGDVVIAETGTSAFGINQTTFPNNTYGISQVLWGSIGFTTGATLGAAFAAEEIDPKKRVILFIGDGSLQLTVQEISTMIRWGLKPYLFVLNNDGYTIEKLIHGPKAQYNEIQGWDHLSLLPTFGAKDYETHRVATTGEWDKLTQDKSFNDNSKIRMIEIMLPVFDAPQNLVEQAKLTAATNAKQ	18.2 s⁻¹			2–5 fold	1.47 ± 0.04 ^d mM
E91D: variant at the indicated position of YPDC (protein, UniProt P06169 2-563, looked up, variant E91D) Pyruvate decarboxylase …: SEITLGKYLFERLKQVNVNTVFGLPGDFNLSLLDKIYEVEGMRWAGNANELNAAYAADGYARIKGMSCIITTFGVGELSALNGIAGSYADHVGVLHVVGVPSISAQAKQLLLHHTLGNGDFTVFHRMSANISETTAMITDIATAPAEIDRCIRTTYVTQRPVYLGLPANLVDLNVPAKLLQTPIDMSLKPNDAESEKEVIDTILALVKDAKNPVILADACCSRHDVKAETKKLIDLTQFPAFVTPMGKGSIDEQHPRYGGVYVGTLSKPEVKEAVESADLILSVGALLSDFNTGSFSYSYKTKNIVEFHSDHMKIRNATFPGVQMKFVLQKLLTTIADAAKGYKPVAVPARTPANAAVPASTPLKQEWMWNQLGNFLQEGDVVIAETGTSAFGINQTTFPNNTYGISQVLWGSIGFTTGATLGAAFAAEEIDPKKRVILFIGDGSLQLTVQEISTMIRWGLKPYLFVLNNDGYTIEKLIHGPKAQYNEIQGWDHLSLLPTFGAKDYETHRVATTGEWDKLTQDKSFNDNSKIRMIEIMLPVFDAPQNLVEQAKLTAATNAKQ	11 s⁻¹				1.79 ± 0.22 ^c mM
E51Q: variant at the indicated position of YPDC (protein, UniProt P06169 2-563, looked up, variant E51Q) Pyruvate decarboxylase …: SEITLGKYLFERLKQVNVNTVFGLPGDFNLSLLDKIYEVEGMRWAGNANQLNAAYAADGYARIKGMSCIITTFGVGELSALNGIAGSYAEHVGVLHVVGVPSISAQAKQLLLHHTLGNGDFTVFHRMSANISETTAMITDIATAPAEIDRCIRTTYVTQRPVYLGLPANLVDLNVPAKLLQTPIDMSLKPNDAESEKEVIDTILALVKDAKNPVILADACCSRHDVKAETKKLIDLTQFPAFVTPMGKGSIDEQHPRYGGVYVGTLSKPEVKEAVESADLILSVGALLSDFNTGSFSYSYKTKNIVEFHSDHMKIRNATFPGVQMKFVLQKLLTTIADAAKGYKPVAVPARTPANAAVPASTPLKQEWMWNQLGNFLQEGDVVIAETGTSAFGINQTTFPNNTYGISQVLWGSIGFTTGATLGAAFAAEEIDPKKRVILFIGDGSLQLTVQEISTMIRWGLKPYLFVLNNDGYTIEKLIHGPKAQYNEIQGWDHLSLLPTFGAKDYETHRVATTGEWDKLTQDKSFNDNSKIRMIEIMLPVFDAPQNLVEQAKLTAATNAKQ	0.035 s⁻¹		14.9 ± 1.3 mM		
D28A: variant at the indicated position of YPDC (protein, UniProt P06169 2-563, looked up, variant D28A) Pyruvate decarboxylase …: SEITLGKYLFERLKQVNVNTVFGLPGAFNLSLLDKIYEVEGMRWAGNANELNAAYAADGYARIKGMSCIITTFGVGELSALNGIAGSYAEHVGVLHVVGVPSISAQAKQLLLHHTLGNGDFTVFHRMSANISETTAMITDIATAPAEIDRCIRTTYVTQRPVYLGLPANLVDLNVPAKLLQTPIDMSLKPNDAESEKEVIDTILALVKDAKNPVILADACCSRHDVKAETKKLIDLTQFPAFVTPMGKGSIDEQHPRYGGVYVGTLSKPEVKEAVESADLILSVGALLSDFNTGSFSYSYKTKNIVEFHSDHMKIRNATFPGVQMKFVLQKLLTTIADAAKGYKPVAVPARTPANAAVPASTPLKQEWMWNQLGNFLQEGDVVIAETGTSAFGINQTTFPNNTYGISQVLWGSIGFTTGATLGAAFAAEEIDPKKRVILFIGDGSLQLTVQEISTMIRWGLKPYLFVLNNDGYTIEKLIHGPKAQYNEIQGWDHLSLLPTFGAKDYETHRVATTGEWDKLTQDKSFNDNSKIRMIEIMLPVFDAPQNLVEQAKLTAATNAKQ	0.066 s⁻¹				1.66 ± 0.25 ^b mM
E477Q: variant at the indicated position of YPDC (protein, UniProt P06169 2-563, looked up, variant E477Q) Pyruvate decarboxylase …: SEITLGKYLFERLKQVNVNTVFGLPGDFNLSLLDKIYEVEGMRWAGNANELNAAYAADGYARIKGMSCIITTFGVGELSALNGIAGSYAEHVGVLHVVGVPSISAQAKQLLLHHTLGNGDFTVFHRMSANISETTAMITDIATAPAEIDRCIRTTYVTQRPVYLGLPANLVDLNVPAKLLQTPIDMSLKPNDAESEKEVIDTILALVKDAKNPVILADACCSRHDVKAETKKLIDLTQFPAFVTPMGKGSIDEQHPRYGGVYVGTLSKPEVKEAVESADLILSVGALLSDFNTGSFSYSYKTKNIVEFHSDHMKIRNATFPGVQMKFVLQKLLTTIADAAKGYKPVAVPARTPANAAVPASTPLKQEWMWNQLGNFLQEGDVVIAETGTSAFGINQTTFPNNTYGISQVLWGSIGFTTGATLGAAFAAEEIDPKKRVILFIGDGSLQLTVQEISTMIRWGLKPYLFVLNNDGYTIQKLIHGPKAQYNEIQGWDHLSLLPTFGAKDYETHRVATTGEWDKLTQDKSFNDNSKIRMIEIMLPVFDAPQNLVEQAKLTAATNAKQ	0.086 s⁻¹				3.02 ± 0.22 ^b mM
